Results on two substances are retold here after publication PMC5343425.

The assay has as its target Purified LDLR ectodomain (UniProt P01130). The assay can be described thus: SPR; BIAcore 3000; LDLR ectodomain immobilised on a CM5 chip by amine coupling (target 1000 RU); lipoprotein fractions injected at 5 nM apoB in HBS-N pH 7.4 (0.01 M HEPES, 0.15 M NaCl) with 0.5% BSA and 1 mM calcium chloride; 25 °C, 30 μl/min for 3 min; fitted with the two-state binding model (A + B ↔ AB ↔ AB*).

Purified LDLR ectodomain, sequence (P01130 22-788): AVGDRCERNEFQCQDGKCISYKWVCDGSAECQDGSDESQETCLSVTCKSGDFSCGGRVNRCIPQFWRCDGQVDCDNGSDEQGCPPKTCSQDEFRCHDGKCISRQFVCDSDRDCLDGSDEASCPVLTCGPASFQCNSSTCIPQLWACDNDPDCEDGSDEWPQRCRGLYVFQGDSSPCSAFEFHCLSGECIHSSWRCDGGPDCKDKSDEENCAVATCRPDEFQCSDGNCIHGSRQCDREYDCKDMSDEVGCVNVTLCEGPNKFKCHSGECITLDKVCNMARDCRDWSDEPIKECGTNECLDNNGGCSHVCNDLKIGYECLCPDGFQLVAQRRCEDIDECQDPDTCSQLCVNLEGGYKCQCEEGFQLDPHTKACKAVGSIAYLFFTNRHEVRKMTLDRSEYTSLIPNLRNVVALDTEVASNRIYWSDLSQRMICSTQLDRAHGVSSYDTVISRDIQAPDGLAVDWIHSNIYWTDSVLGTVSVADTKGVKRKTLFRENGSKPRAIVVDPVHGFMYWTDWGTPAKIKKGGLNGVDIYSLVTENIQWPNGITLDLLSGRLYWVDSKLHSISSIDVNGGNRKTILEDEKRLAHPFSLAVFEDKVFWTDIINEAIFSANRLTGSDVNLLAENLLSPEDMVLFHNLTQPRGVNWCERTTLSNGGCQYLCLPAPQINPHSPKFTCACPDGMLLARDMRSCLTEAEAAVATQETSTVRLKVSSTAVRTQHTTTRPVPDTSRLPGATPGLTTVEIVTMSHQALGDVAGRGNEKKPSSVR

Regarding “VLDL1-rich TRL fraction (Sf 60-400) isolated from fasting plasma of APOE3/E4 subjects (from UniProt P02649 19-317; P02649 19-317) (complex)”, the K1 (two-state, step 1) turned out to be 1.9e+08 M⁻¹; the K2 (two-state, step 2) amounted to 17.3; the Ka was determined as 3.3e+09 M⁻¹; the ka1 (two-state, step 1) stood at 930000 M⁻¹ s⁻¹. The ka2 (two-state, step 2) turned out to be 0.017 s⁻¹; the kd1 (two-state, step 1) came to 0.0052 s⁻¹; the kd2 (two-state, step 2) stood at 0.00097 s⁻¹.
For the substance “LDL (density 1.019-1.063 g/ml) isolated from fasting APOE3/E4 subjects (from UniProt P02649 19-317; P02649 19-317) (complex)”, the K1 (two-state, step 1) came to 1.4e+08 M⁻¹; the K2 (two-state, step 2) was 1.7; the Ka is 5e+08 M⁻¹; the ka1 (two-state, step 1) came to 1.45e+06 M⁻¹ s⁻¹. Besides, the ka2 (two-state, step 2) stood at 0.006 s⁻¹; the kd1 (two-state, step 1) stood at 0.0127 s⁻¹; the kd2 (two-state, step 2) turned out to be 0.00287 s⁻¹.
